The values that follow come from patent US20230203146A1 (Boehringer Ingelheim, published 2023).

In general, IC50 refers to the midpoint of a concentration-inhibition curve. Read a low IC50 as inhibition by little substance. By Kd is commonly meant the free concentration of one partner at which half of the binding sites on the other are occupied at equilibrium, for simple one-to-one binding. One may read the koff as the rate constant with which the complex falls apart. By kon is commonly meant the rate constant with which the complex forms.

Like-named read-outs stand apart in the source and are kept apart here.

Experiment [1] addresses T1, FLAG-tagged cynomolgus Ang2 (cynomolgus, UniProt O15123 19-496 (human entry), limits assumed).
T1 construct: N-terminally FLAG-tagged, conditioned medium of HEK293T cells; also called cAng2; FLAG-cAng2
T1 chain: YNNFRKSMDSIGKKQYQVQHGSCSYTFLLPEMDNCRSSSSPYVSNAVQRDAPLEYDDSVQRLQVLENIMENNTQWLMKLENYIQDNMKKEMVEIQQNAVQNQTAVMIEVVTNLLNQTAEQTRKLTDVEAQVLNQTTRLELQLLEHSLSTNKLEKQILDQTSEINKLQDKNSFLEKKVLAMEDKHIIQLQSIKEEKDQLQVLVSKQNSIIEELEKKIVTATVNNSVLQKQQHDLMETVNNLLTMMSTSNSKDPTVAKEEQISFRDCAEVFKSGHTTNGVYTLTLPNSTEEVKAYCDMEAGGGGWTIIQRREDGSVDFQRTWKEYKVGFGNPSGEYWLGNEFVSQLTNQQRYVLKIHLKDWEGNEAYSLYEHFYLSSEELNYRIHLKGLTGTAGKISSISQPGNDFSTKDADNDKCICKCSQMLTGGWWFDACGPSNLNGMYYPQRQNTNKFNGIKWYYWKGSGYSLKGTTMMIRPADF
Kind of experiment: competition ELISA: FLAG-cAng2 binding to coated cTie2-Fc. Here is the method: (§1) In brief, 2 μg/mL of recombinant mouse Tie2-Fc or cyno Tie2-Fc is coated overnight at 4° C. in a 96-well MaxiSorp plate (Nunc, Wiesbaden, Germany). Coated wells are blocked with a 1% casein solution.
(In general: An ELISA detects its analyte on a solid surface through an enzyme-linked reagent.)

Experiment [2] addresses T2, recombinant cynomolgus Ang2-FLD (cynomolgus, UniProt A0A2K5VNX6 275-496).
T2 construct: domain: FLD; also called cyno Ang2-FLD
T2 sequence: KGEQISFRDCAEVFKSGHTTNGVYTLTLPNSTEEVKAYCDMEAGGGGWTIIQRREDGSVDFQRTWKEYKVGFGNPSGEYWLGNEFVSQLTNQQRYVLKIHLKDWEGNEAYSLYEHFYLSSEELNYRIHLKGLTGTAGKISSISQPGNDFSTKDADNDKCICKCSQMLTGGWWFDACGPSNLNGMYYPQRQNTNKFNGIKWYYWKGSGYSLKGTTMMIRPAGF
Kind of experiment: SPR (Biacore T100), VHH immobilized, Ang2-FLD injected. The protocol:
(§2) In brief, VHH and benchmark compounds are immobilized on a CM5 chip via amine coupling. […] Ang2-FLD species are allowed to associate for 2 min and to dissociate for 20 min at a flow rate of 45 μL/min. In between injections, the surfaces are regenerated with a 10 sec pulse of 25 mM NaOH and 60 sec stabilization period. Association/dissociation data are evaluated by fitting a 1:1 interaction model (Langmuir binding). The affinity constant KD is calculated from resulting association and dissociation rate constants kₐ and kd and are depicted in Table 8.
On the technique in general: SPR reads the build-up and loss of mass on a sensor chip optically.

Experiment [3] concerns the target T3, recombinant human Ang2-FLD (human, UniProt O15123 275-496, limits assumed).
T3 construct: domain: FLD
T3 sequence (looked up): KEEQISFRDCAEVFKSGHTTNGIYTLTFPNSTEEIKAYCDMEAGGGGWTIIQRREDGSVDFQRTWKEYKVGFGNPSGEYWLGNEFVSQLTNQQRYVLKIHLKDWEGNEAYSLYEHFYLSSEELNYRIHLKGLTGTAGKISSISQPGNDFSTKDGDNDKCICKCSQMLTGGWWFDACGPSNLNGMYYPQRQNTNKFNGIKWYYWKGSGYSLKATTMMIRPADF
The description is as above. The protocol:
as §2

In experiment [4] the target is T4, recombinant mouse Ang2-FLD (mouse, UniProt O35608 275-496, limits assumed).
T4 construct: domain: FLD
T4 sequence (looked up): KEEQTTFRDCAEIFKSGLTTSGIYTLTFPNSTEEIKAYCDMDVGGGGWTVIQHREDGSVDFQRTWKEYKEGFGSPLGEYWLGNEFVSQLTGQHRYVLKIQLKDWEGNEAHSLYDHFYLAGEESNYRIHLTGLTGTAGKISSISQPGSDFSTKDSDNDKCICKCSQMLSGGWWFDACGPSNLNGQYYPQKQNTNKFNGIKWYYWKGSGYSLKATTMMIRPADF
The description is as above. The protocol:
as §2

The next experiment concerns the target T5, recombinant rat Ang2-FLD (rat, UniProt O35462 275-496, limits assumed).
T5 construct: domain: FLD
T5 sequence (looked up): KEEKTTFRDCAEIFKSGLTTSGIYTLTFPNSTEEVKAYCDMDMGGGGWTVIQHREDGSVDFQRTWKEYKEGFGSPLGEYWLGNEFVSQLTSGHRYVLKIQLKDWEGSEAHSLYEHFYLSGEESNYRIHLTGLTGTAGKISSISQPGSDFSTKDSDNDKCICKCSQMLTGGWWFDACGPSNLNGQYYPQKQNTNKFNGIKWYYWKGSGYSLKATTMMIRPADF
Described as above. Here is the method:
as §2

For experiment [5], the target named is T6, FLAG-tagged mouse Ang2 (mouse, UniProt O35608 19-496).
T6 construct: N-terminally FLAG-tagged, conditioned medium of HEK293T cells; also called mAng2; FLAG-mAng2
T6 sequence: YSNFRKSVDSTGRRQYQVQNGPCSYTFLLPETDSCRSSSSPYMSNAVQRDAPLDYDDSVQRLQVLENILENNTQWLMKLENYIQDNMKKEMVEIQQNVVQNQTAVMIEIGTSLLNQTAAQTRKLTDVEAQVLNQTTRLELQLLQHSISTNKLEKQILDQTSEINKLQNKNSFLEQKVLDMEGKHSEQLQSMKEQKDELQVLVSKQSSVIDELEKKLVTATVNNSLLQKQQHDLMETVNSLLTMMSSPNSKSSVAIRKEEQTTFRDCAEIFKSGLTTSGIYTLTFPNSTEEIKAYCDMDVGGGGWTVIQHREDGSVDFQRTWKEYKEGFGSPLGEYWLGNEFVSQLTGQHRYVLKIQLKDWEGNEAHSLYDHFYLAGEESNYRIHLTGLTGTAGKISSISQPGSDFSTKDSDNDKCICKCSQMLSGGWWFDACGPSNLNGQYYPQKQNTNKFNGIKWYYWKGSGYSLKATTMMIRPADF
Kind of experiment: competition ELISA: FLAG-mAng2 binding to coated mTie2-Fc. The protocol:
as §1

Experiment [6] concerns the target T1, FLAG-tagged cynomolgus Ang2. Kind of experiment: competition ELISA: FLAG-cAng2 binding to coated cTie2-Fc. The protocol:
as §1

In experiment [7] the target is T6, FLAG-tagged mouse Ang2. Kind of experiment: competition ELISA: FLAG-mAng2 binding to coated mTie2-Fc. The protocol: as §1
This is another data set of the same source.

B1: VHH 00928 (VHH, not shown: small tags and cut ends)
VHH: EVQLVESGGGLVQPGGSLRLSCAASGFALDYYAIGWFRQAPGKEREGVSCISSSGGITYYADSVKGRFTISRDNSKNTVYLQMNSLRPEDTAVYYCATDSGGYIDYDCSGLGYDYWGQGTLVTVSS
For the molecule B1, the figures for the half-inhibitory concentration (IC50) (in experiment [1]; with FLAG-tagged mouse Ang2 [5]) were 0.39 nM and 0.2 nM, respectively. Further, the dissociation constant (Kd) in experiment [2] was 0.05 nM; in experiment [3], 0.064 nM; in experiment [4], 0.17 nM; with recombinant rat Ang2-FLD it was 0.29 nM. The off-rate constant (koff) worked out at 4.9e-05 s⁻¹ in experiment [2], 4e-05 s⁻¹ in experiment [3], 7.3e-05 s⁻¹ in experiment [4] and 5.4e-05 s⁻¹ in the experiment with recombinant rat Ang2-FLD. Also, the on-rate (kon) in experiment [2] stood at 970000 M⁻¹ s⁻¹; in experiment [3] it was 620000 M⁻¹ s⁻¹; in experiment [4] it was 420000 M⁻¹ s⁻¹; with recombinant rat Ang2-FLD, 180000 M⁻¹ s⁻¹.

B2: VHH 00921 (VHH, not shown: small tags and cut ends)
VHH: EVQLVESGGGLVQPGGSLRLSCAASGFTFDDYALGWFRQAPGKEREGVSCIRCSGGSTYYADSVKGRFTISSDNSKNTVYLQMNSLRPEDTAVYYCAASIVPRSKLEPYEYDAWGQGTLVTVSS
Turning to B2, the half-inhibitory concentration (IC50) in experiment [6] worked out at 37 nM; with FLAG-tagged mouse Ang2 [7] it was 27 nM. Also, the Kd in experiment [2] turned out to be 2.3 nM; in experiment [3] it was 6.6 nM; in experiment [4], 7.5 nM; with recombinant rat Ang2-FLD it was 42 nM. Moreover, the koff in experiment [2] worked out at 0.025 s⁻¹; in experiment [3] it was 0.027 s⁻¹; in experiment [4], 0.025 s⁻¹; with recombinant rat Ang2-FLD, 0.049 s⁻¹. In addition, the kon in experiment [2] was found to be 1.1e+07 M⁻¹ s⁻¹; in experiment [3] it was 4e+06 M⁻¹ s⁻¹; in experiment [4], 3.3e+06 M⁻¹ s⁻¹; in the experiment with recombinant rat Ang2-FLD, 1.2e+06 M⁻¹ s⁻¹.
